Test results from publication PMC10899635 (2024).

B1: Nb27 (VHH)
VHH: QVQLQESGGGLVQPGGSLRLSCTTSRSILSIYAMGWYRQAPGKQRELVAVITSGGSTYYADSVKGRFTISRDNAKNTLYLQMNSLKPEDTALYYCARGGYGTSPQPSWGQGTQVTVSS
B2: Nb39 (VHH)
VHH: QVQLQESGGGLVQPGGSLRLSCTASGSIFSGYAMGWYRQAPGKQRELVAGITSGGSTIYAGSVKGRFTISRDNAKNTVYLQMNSLKPEDTAVYYCKNGTYYSARDYWGQGTQVTVSS
B3: recombinant Q586B2 protein (natural protein)
chain: MPNLVVTATFSPPAFSIVGSPLREDTIKHMEERIPTVLSTALSRSREPSYFVHSKNPESWKMELSQHFCDELHRAAVSLVIIECLDAEGWVLRTSSSSQDTNEGKCCIKFYFTRS

Columns and labels:
[1] = target: B3

Binder	Kd [1] [µM]	Kd (Nb36) [µM]	Kd (Nb34) [µM]
B1	0.052	–	–
B2	0.0499	–	–
B3	–	0.0113	0.0367
